Test results as given in paper PMC7374887, “Severe syndromic ID and skewed X-inactivation in a child with NAA10 dysfunction and a novel heterozygous de novo NAA10 p.(His16Pro) variant - a case report” (BMC Medical Genetics, 2020).

Target: T1, NAA10 H16P-V5 (human, UniProt P41227-1 1-235, H16P)
T1 sequence (looked up): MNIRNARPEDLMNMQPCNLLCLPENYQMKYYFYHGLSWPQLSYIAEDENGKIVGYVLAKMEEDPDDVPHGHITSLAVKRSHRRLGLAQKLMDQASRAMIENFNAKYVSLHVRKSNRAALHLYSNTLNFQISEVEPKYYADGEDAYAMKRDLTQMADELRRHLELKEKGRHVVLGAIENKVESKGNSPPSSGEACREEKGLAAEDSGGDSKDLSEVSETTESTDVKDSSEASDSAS
Experiment: cell-based or functional assay

B1: NAA15 (natural protein, human (endogenous in HeLa), UniProt Q9BXJ9 1-866, looked up)
chain: MPAVSLPPKENALFKRILRCYEHKQYRNGLKFCKQILSNPKFAEHGETLAMKGLTLNCLGKKEEAYELVRRGLRNDLKSHVCWHVYGLLQRSDKKYDEAIKCYRNALKWDKDNLQILRDLSLLQIQMRDLEGYRETRYQLLQLRPAQRASWIGYAIAYHLLEDYEMAAKILEEFRKTQQTSPDKVDYEYSELLLYQNQVLREAGLYREALEHLCTYEKQICDKLAVEETKGELLLQLCRLEDAADVYRGLQERNPENWAYYKGLEKALKPANMLERLKIYEEAWTKYPRGLVPRRLPLNFLSGEKFKECLDKFLRMNFSKGCPPVFNTLRSLYKDKEKVAIIEELVVGYETSLKSCRLFNPNDDGKEEPPTTLLWVQYYLAQHYDKIGQPSIALEYINTAIESTPTLIELFLVKAKIYKHAGNIKEAARWMDEAQALDTADRFINSKCAKYMLKANLIKEAEEMCSKFTREGTSAVENLNEMQCMWFQTECAQAYKAMNKFGEALKKCHEIERHFIEITDDQFDFHTYCMRKITLRSYVDLLKLEDVLRQHPFYFKAARIAIEIYLKLHDNPLTDENKEHEADTANMSDKELKKLRNKQRRAQKKAQIEEEKKNAEKEKQQRNQKKKKDDDDEEIGGPKEELIPEKLAKVETPLEEAIKFLTPLKNLVKNKIETHLFAFEIYFRKEKFLLMLQSVKRAFAIDSSHPWLHECMIRLFNTAVCESKDLSDTVRTVLKQEMNRLFGATNPKNFNETFLKRNSDSLPHRLSAAKMVYYLDPSSQKRAIELATTLDESLTNRNLQTCMEVLEALYDGSLGDCKEAAEIYRANCHKLFPYALAFMPPGYEEDMKITVNGDSSAEAEELANEI
- Nt-acetylation assay of the V5 immunoprecipitate towards the monomeric NAA10 substrate EEEI24, normalized to NAA10-V5, relative to NAA10 WT-V5: 1.5 fold
